Measured values reported in article PMC6155126.

What was measured:
PAXX (cleaved) = PAXX (cleaved) (Homo sapiens, UniProt Q9BUH6 1-204); assay: EMSA; 0.5 µM PAXX; EMSA: 50 mM Tris-HCl pH 7.5, 100 mM KCl, 2.5 mM MgCl2, 1 mM DTT, 4% glycerol, 0.05% Triton X-100, 0.1 mg/ml BSA, 10-20 nM DNA, 30 min at 25 °C; 4-5% native PAGE, 0.5x TBE, 4 °C; conditions: protein: recombinant; tags: GST tag cleaved (PreScission); chain copies: 2; label: 5' IRDye 700 on one strand; 5-nt gap
Pol λ WT = Pol λ WT (Homo sapiens, UniProt Q9UGP5 1-575); assay: EMSA; 40 or 200 nM Pol λ; EMSA: 50 mM Tris-HCl pH 7.5, 100 mM KCl, 2.5 mM MgCl2, 1 mM DTT, 4% glycerol, 0.05% Triton X-100, 0.1 mg/ml BSA, 10-20 nM DNA, 30 min at 25 °C; 4-5% native PAGE, 0.5x TBE, 4 °C; conditions: protein: recombinant; tags: FLAG; label: 5' IRDye 700 on one strand; 5-nt gap

B1: 5nt-gapped dsDNA 30-mer (dsDNA)
DNA 1: ACTGGCCGTCGTTCTATTGTACTCACTGTGATC
DNA 2: GATCACAGTGAGTAC
DNA 3: AACGACGGCCAGT
PAXX (cleaved)
  binding result: no binding
Pol λ WT
  binding result: binds
